Measured values taken from article doi:10.1101/2023.02.24.529952.

Target: HCoV-OC43 Nucleocapsid (N) protein (2X-StrepTag tagged) (HCoV-OC43) (UniProt P33469)
Assay: BLI

Chain of HCoV-OC43 Nucleocapsid (N) protein (2X-StrepTag tagged) (HCoV-OC43) (P33469 whole entry): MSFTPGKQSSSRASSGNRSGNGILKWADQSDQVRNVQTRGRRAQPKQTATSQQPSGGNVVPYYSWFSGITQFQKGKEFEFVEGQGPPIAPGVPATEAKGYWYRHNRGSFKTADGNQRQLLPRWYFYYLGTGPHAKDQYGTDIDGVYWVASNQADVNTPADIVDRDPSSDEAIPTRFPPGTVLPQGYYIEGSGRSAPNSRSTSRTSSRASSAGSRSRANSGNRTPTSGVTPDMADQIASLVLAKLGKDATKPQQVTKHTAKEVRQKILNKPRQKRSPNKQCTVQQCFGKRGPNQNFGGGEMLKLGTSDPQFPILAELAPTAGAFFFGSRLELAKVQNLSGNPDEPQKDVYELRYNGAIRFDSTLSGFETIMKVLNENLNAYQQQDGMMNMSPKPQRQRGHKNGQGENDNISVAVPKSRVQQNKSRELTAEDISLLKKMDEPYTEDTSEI

For CXCL4 (ligand), the Kd was 170 nM, the koff was 0.00088 s⁻¹ and the kon was 5300 M⁻¹ s⁻¹.
